Literature values as cited in publication PMC4941815.

Assays:
CLK1 (Homo sapiens) = CLK1 (Homo sapiens) (UniProt P49759); assay: competition
SRPK1 (Homo sapiens) = SRPK1 (Homo sapiens) (UniProt Q96SB4); assay: competition
SRPK1 (Homo sapiens), sequence (Q96SB4 whole entry): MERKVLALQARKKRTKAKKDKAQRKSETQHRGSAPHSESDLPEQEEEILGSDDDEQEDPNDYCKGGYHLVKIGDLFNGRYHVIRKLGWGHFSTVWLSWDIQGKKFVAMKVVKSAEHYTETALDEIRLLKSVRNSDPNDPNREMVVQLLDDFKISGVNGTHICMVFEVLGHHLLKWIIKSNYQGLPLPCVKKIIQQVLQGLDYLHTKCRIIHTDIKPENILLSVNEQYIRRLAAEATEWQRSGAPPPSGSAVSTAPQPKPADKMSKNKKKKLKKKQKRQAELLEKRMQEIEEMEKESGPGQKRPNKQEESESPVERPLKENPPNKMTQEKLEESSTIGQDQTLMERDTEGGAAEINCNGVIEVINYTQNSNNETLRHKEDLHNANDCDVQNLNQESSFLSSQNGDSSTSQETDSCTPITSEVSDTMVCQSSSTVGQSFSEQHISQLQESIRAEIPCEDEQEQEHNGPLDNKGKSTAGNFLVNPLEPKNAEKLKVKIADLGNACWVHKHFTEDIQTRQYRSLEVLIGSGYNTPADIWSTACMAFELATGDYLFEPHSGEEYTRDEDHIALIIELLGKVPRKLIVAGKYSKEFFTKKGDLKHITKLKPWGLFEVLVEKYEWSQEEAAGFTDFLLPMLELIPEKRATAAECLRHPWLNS

SRSF1, sequence (Q07955 2-248): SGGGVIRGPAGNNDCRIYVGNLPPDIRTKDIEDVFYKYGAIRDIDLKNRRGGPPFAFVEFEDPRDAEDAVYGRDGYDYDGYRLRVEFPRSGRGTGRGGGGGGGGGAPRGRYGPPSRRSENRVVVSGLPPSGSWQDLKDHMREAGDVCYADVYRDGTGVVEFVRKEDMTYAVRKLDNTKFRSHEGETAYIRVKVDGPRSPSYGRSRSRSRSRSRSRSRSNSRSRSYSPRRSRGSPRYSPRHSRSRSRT
CLK1 (Homo sapiens), sequence (P49759 whole entry): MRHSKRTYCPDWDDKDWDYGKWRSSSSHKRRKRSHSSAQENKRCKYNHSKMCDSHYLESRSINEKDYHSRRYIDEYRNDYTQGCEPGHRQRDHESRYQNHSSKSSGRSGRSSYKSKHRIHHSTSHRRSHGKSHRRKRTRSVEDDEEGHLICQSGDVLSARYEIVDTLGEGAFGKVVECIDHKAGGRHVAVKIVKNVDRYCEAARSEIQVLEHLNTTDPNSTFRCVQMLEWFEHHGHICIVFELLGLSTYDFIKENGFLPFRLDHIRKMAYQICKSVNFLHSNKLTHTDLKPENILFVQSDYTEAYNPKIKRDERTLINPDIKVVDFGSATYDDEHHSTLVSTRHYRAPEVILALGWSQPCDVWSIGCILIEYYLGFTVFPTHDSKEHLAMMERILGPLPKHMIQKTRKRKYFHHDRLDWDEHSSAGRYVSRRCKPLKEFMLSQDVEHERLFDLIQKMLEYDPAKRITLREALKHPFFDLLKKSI

For SRSF1 (from UniProt Q07955), the Kd (CLK1 (Homo sapiens)) is listed as 6 nM and the Kd (SRPK1 (Homo sapiens)) is listed as 60 nM.
